Tests used:
[1] = target: Med15 activator-binding domain 2 (ABD2; residues 277–368) (yeast) (UniProt P19659); assay: ITC + fluorescence polarisation
[2] = target: Med15 1–651 Δ239–272, Δ373–483 (KIX123) (yeast) (UniProt P19659); assay: fluorescence polarisation
[3] = target: Med15 158–651 Δ239–272, Δ373–483 (ABD123) (yeast) (UniProt P19659); assay: fluorescence polarisation

Kd [1] | increase of affinity over ABD123 [2] | fold higher affinity than the strongest piecemeal interaction [3] | Substance
150 µM |  |  | Gcn4 central activation domain (cAD; residues 101–134) (from UniProt P03069 101-134) (domain or fragment)
 | 30% | 20 fold | Gcn4 tandem activation domains (tAD; residues 1–134) (from UniProt P03069 1-134) (domain or fragment)
